Measured values published in US20250206813A1 (NVH MEDICINAL, published 2025).

Experiments:
[1] = target: T1, PCPE-1 (Procollagen C-proteinase enhancer-1) glycoprotein, human (human, UniProt Q15113 26-449); assay: SPR competition: PCPE-1 (5 nM) co-injected with D1 (0-200 nM) on immobilized Mini III
T1 construct: mature; Secreted recombinant protein; also called purified human PCPE-1
T1 sequence (looked up): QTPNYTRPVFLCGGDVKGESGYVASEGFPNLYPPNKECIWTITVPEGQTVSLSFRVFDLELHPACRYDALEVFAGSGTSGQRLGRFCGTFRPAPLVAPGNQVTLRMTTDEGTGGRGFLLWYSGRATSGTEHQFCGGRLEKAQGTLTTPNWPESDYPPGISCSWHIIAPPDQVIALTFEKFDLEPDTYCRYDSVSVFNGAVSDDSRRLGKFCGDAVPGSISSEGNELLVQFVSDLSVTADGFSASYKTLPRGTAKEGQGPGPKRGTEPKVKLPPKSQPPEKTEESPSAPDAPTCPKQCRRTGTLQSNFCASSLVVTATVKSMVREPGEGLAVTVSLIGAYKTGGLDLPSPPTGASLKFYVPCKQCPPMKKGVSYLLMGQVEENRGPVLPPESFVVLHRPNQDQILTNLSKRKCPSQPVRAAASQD
Experimental: (§1) Surface plasmon resonance (SPR) experiments were carried out on a Biacore T200 (Cytiva). The ligand proteins, in solution in 10 mM HEPES pH 7.4 buffer for PCPE-1 or 10 mM sodium acetate pH 4.5 buffer for mini-procollagen III and streptavidin, are immobilized on CM5 chips by amine coupling. Analytes are diluted in running buffer (10 mM HEPES pH 7.4, 0.15 M NaCl, 5 mM CaCl₂), 0.05% P20) and injected at a flow rate of 30 or 50 μL/min. Competition, epitope binning and kinetics experiments were all carried out at 25° C. Regeneration was achieved by successive injection of 2 M guanidine chloride and 0.5 M EDTA for 30 sec. Sensorgrams were analyzed with Biacore T200 Evaluation v3.2.1 (Cytiva), using the most suitable models. IC50 was determined by non-linear regression using GraphPad Prism (v8.2.1).
Similarly, the addition of diab-D1 completely blocks the stimulation of CPIII-Long cleavage by PCPE-1 (FIG. 4C).

[2] = target: T1, PCPE-1 (Procollagen C-proteinase …); assay: SPR competition: PCPE-1 (5 nM) co-injected with D1 (0-200 nM) over immobilized mini-procollagen III; blocked ligand: Mini III
Experimental: FIG. 4B: Inhibition of PCPE-1/mini-procollagen III interaction in the presence of D1: the interaction of PCPE-1 (5 nM) with immobilized mini-procollagen III is measured and compared with the interaction obtained when PCPE-1 (5 nM) is co-injected with increasing amounts (0-200 nM) of D1. The % residual PCPE-1 uptake is plotted as a function of D1 concentration.
as §1

[3] = target: T1, PCPE-1 (Procollagen C-proteinase …); assay: SPR, D1 (0-250 nM) injected over immobilized PCPE-1, 1:1 binding model (Langmuir)
Experimental: as §1
(§2) 21, produced in bacteria. The interaction of diab-D1 with PCPE-1 was assessed by SPR, by injecting increasing concentrations of diab-D1 onto immobilized PCPE-1.

[4] = target: T1, PCPE-1 (Procollagen C-proteinase …); assay: SPR, increasing concentrations of D1 (0-250 nM) on immobilized PCPE-1, Langmuir model
Experimental: as §1, §2

[5] = target: T1, PCPE-1 (Procollagen C-proteinase …); assay: SPR competition: PCPE-1 (5 nM) co-injected with the mix on immobilized Mini III; mix of VHH-I5 and VHH-H4, 5 nM PCPE-1
Experimental: as §1
What is more, their antagonistic effects are additive, and co-injection of a mixture of VHH-I5 and VHH-H4 with PCPE-1 virtually eliminates its interaction with Mini III.

B1: bivalent nanobody VHH-H4-GS8-VHH-I5 (D1) (other)
chain: MAEVQLQASGGGFVQPGGSLRLSCAASGFTSEISNMGWFRQAPGKEREFVSAISGTHTTQTYYADSVKGRFTISRDNSKNTVYLQMNSLRAEDTATYYCAAEQDMSDLWLGSYWGQGTQVTVSSAAAGSGSGSGSGSGSGGSQVQLVESGGGLVQPGGFLRLLCTASGNIFSSNTMGWYRRAPGKQREWVASISKGGSTNYADSVKDRFTISRSITKNTVYLQMVNLKPEDTAVYYCNPVPDSDNYASGQGTQVTVSS
notes: Single polypeptide of two VHHs (H4, linker, I5), biparatopic for PCPE-1 (CUB1 and CUB2); produced in bacteria; also called diab-D1; diabody D1; not shown: C-terminal tag of the pET29b(+) construct (6-His for the synthetic nanobodies)
In the case of B1, the IC50 [1] is reported as about 3.5 nM, the “IC50 (read off the curve)” value [2] is reported as about 3 nM and the koff [3] is reported as 0.000515 s⁻¹. It also gave a kon [3] of 1.6e+06 M⁻¹ s⁻¹ and a Kd [4] of 0.32 nM.

B2: mix of VHH-I5 and VHH-H4 (other)
VHH 1: MAQVQLVESGGGLVQPGGFLRLLCTASGNIFSSNTMGWYRRAPGKQREWVASISKGGSTNYADSVKDRFTISRSITKNTVYLQMVNLKPEDTAVYYCNPVPDSDNYASGQGTQVTVSS
VHH 2: MAEVQLQASGGGFVQPGGSLRLSCAASGFTSEISNMGWFRQAPGKEREFVSAISGTHTTQTYYADSVKGRFTISRDNSKNTVYLQMNSLRAEDTATYYCAAEQDMSDLWLGSYWGQGTQVTVSS
notes: Not one molecule: two separate nanobodies added together; the two chains are not linked; also called mixture of VHH-I5 and VHH-H4; VHH-I5 and VHH-H4 co-injected; not shown: C-terminal 6-His tag
In the case of B2, the IC50 [5] is reported as about 20 nM.
